In publication PMC12749422:

What was measured:
[1] = target: A/Singapore/INFIMH/16 (Sing/16) H3 hemagglutinin, recombinant HA-GCN4-2x sfGFP, glycosylated (influenza A virus A/Singapore/INFIMH/16 (H3N2)); assay: cryo-EM structure
[2] = target: A/Singapore/INFIMH/16 (Sing/16) H3 hemagglutinin, recombinant HA-GCN4-2x sfGFP, treated with endo H (influenza A virus A/Singapore/INFIMH/16 (H3N2)); assay: cryo-EM structure

Row | Substance | stoichiometry N [1] | stoichiometry N [2]
1 | A/Singapore/INFIMH/16 (Sing/16) H3 hemagglutinin, recombinant HA-GCN4-2x sfGFP, glycosylated (natural protein) | 3 | –
2 | A/Singapore/INFIMH/16 (Sing/16) H3 hemagglutinin, recombinant HA-GCN4-2x sfGFP, treated with endo H (natural protein) | – | 3
